Source: patent US7951210B2, “Support-colouring means” (Doublet Luc, priority 2004, dated 2011)

Assays:
[1] = Inhibition of the oxidation of ABTS by NPE-hemoglobin conjugates (microtitration plate, H2O2); format: biochemical; conditions: oxidation of ABTS 1 mM, H2O2 1 mM, sodium acetate buffer pH 5, before dialysis
Experimental: Bovine hemoglobin in aqueous solution (32 μM) is treated with different concentrations of 1-(2-nitrophenyl)ethyldiazoethane (NPE-diazo) in solution in DMSO at 20° C. for 1 h in darkness. The final concentration of DMSO should not exceed 5%. The NPE-diazo concentrations vary from 50 to 100 equivalents with respect to the hemoglobin. The coupling reaction is halted by addition of a 100 mM acetate buffer solution at pH 4.4 (1 equivalent with respect to NPE-diazo). The contact times vary from 10 to 30 min. The reaction mixture is subsequently dialyzed against water, between 4 and 20° C., between 1 and 16 hours, against 1000 volumes of water. The conjugate is stored at 20° C.
The percentage of inhibition of the oxidation of ABTS [diammonium salt of 2,2′-azinobis(3-ethylbenzothiazolinone-6-sulfonic acid), 1 mM] is determined before dialysis on 96-well microtitration plates (Costar, Corning Incorporated) in sodium acetate buffer, […], pH 5, in the presence of 1 mM of hydrogen peroxide. The number of molecules attached per hemoglobin molecule is determined by mass spectrometry (electrospray).

[2] = Restoration of the enzymatic activity (ABTS oxidation) after photolysis at 366 nm; format: biochemical; conditions: after irradiating for 30 min at 366 nm; ABTS 1 mM, H2O2 1 mM
Experimental: The oxidation catalyst is reactivated by irradiation of the solutions of the various conjugates (1 mg/ml) in sodium acetate buffer (25 mM, pH 4.4). Photolysis takes place at 366 nm (100 W UV lamp, 7 mW/cm^2 at a distance of 30 cm); the irradiation times vary from 5 to 30 min. This stage is advantageously carried out in the presence of 5 mM of 2-ethanolamine in order to trap possible cross reactions between photolysis products and hemoglobin.
The restoration of the enzymatic activity is determined in microtitration plates as described above in the presence of ABTS (1 mM) and H2O2 (1 mM).

Substance | Residual activity (%) [1] [%] | activity recovered after irradiation [2] [%]
Native hemoglobin: Untreated bovine hemoglobin, oxidation catalyst used as 100% activity reference [reference compound] | 100 | 
Hb-75: Bovine hemoglobin treated with 75 equivalents of 1-(2-nitrophenyl)ethyldiazoethane (NPE-diazo); NPE-hemoglobin conjugate | 5.4 | 28
Hb-50: Bovine hemoglobin treated with 50 equivalents of 1-(2-nitrophenyl)ethyldiazoethane (NPE-diazo); NPE-hemoglobin conjugate | 12.6 | 57
Hb-100: Bovine hemoglobin treated with 100 equivalents of 1-(2-nitrophenyl)ethyldiazoethane (NPE-diazo); NPE-hemoglobin conjugate | 2.5 | 16
